One assay concerns the target T1, Aβ 1–40 (Homo sapiens, UniProt P05067).
T1 construct: Lyophilized synthetic Aβ 1–40 was dissolved in mili-Q water; host or cells: chemical synthesis (synthetic peptide)
Put plainly: Fluorescent titration of RAGE fragments by Aβ 1–40. The format is binding. As to conditions: tryptophan fluorescence titration with Aβ 1–40; 25 mM Tris-HCl, 100 mM NaCl, 5 mM EDTA, pH 7.5; peptide 0.5 μM (P1) or 2 μM (P2–P6); excitation 285 nm, emission 355 nm; mean ± SEM of three independent measurements. On the procedure:
The fluorescence titrations of synthetic peptides were performed using Fluoromax 3 fluorescence spectrophotometer (Horiba Jobin Yvon, Germany). Titrations were conducted in a quartz cuvette with 2 ml of titration buffer (25 mM Tris-HCl, 100 mM NaCl, 5 mM EDTA, pH 7.5). The concentration of peptide (60–76) which has two tryptophan residues was 0.5 μM. Whereas peptides (60–70), (60–62), (60–65), (62–73), and (65–76) have only one Trp residue, their concentration was 2 μM to enhance the signal. Lyophilized synthetic Aβ 1–40 was dissolved in mili-Q water at a concentration of 1 mM. […]
The fluorescence spectrum was measured after each addition of beta-amyloid. […] Emission was detected in the range of […]. The maximum of fluorescence intensity was found at 355 nm. […]
where [S] – concentration of Aβ 1–40 in cuvette; ΔF is the difference of intensity between experiment in absence of Aβ 1–40 and experiment with beta-amyloid at the certain concentration and ΔFmax is the maximal fluorescence change ([Huang et al., 2016]). […]
The dissociation constant Kd was found by multiplication of the calculated slope factor and ΔFmax. For each peptide the dissociation constant was measured three times independently. Dissociation constants were expressed as mean ± SEM. P-values were measured by Mann-Whitney test to estimate the differences between each of obtained dissociation constants.

In assay [1] the test system is primary cultures of neurons and astrocytes derived from hippocampal and cortical areas of rats' brains. Kind of assay: Caspase 3 activity assay (NucView 488) after Aβ 1–42 treatment. It is filed as cell-based, rat. As to conditions: pre-incubation 3 h with 10 μM peptide, then 1 h with 5 μM Aβ 1–42, NucView 488, confocal, mean (SEM) of N = 6–28 fields.
Experimental: Mixed cultures of hippocampal and cortical neurons and glial cells were prepared as described previously ([Vaarmann et al., 2010]) with modifications, from Sprague-Dawley rat pups 2–4 days post-partum (UCL breeding colony). […] Hippocampi and cortex were removed into ice-cold PBS (Ca^2+, Mg^2+-free, Invitrogen, Paisley, United Kingdom). The tissue was minced and trypsinised (0.25% for 15 min at 37°C), triturated and plated on Poly-D-lysine-coated coverslips and cultured in Neurobasal A medium (Invitrogen, Paisley, United Kingdom) supplemented with B-27 (Invitrogen, Paisley, United Kingdom) and 2 mM L-glutamine. […]
For the measurement of caspase 3 activation, cells were loaded for 15 min at room temperature with 10 μM NucView 488 caspase 3 substrate (Biotium, United States) in HBSS. […] The 488 nm argon laser was used to excite NucView 488 fluorescence, which was measured using a bandpass filter from 510 and 560 nm. […] The number of cells with activated caspase 3 and the number of all visible cells was quantified manually in each field and the percentage of dead cells was calculated by dividing the number of caspase 3-positive cells by the number of all cells counted in one field. The differences between the groups were evaluated using the two-sample t-test. All data were expressed as mean ± SEM. […]
Assay [2] addresses Beta-amyloid 1-40 Abeta 1-40 (Homo sapiens, UniProt P05067). Kind of assay: tryptophan fluorescence titration.

Here are results for 6 molecules from PMC6170785, “Synthetic Fragments of Receptor for Advanced Glycation End Products Bind Beta-Amyloid 1–40 and Protect Primary Brain Cells From Beta-Amyloid Toxicity” (Frontiers in Neuroscience, 2018).

Chain of Beta-amyloid 1-40 Abeta 1-40 (P05067 1-40): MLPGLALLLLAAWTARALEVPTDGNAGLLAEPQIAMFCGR
T1 sequence (P05067 672-711 limits assumed): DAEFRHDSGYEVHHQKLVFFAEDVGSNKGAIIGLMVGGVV

On to “SPQGGGPWDSVA [Peptide P5, synthetic fragment (65–76) of human RAGE]”, for which the Kd – broadly, the equilibrium constant for the complex coming apart – at Aβ 1–40 is recorded as “No binding”. Moreover, the “Percentage of cells with activated caspase 3, Mean” value is on record as 14.25% in assay [1] and 14.25 ± 3.22% in assay [1] (SEM).
The molecule AWKVLSPQGGGPWDSVA [RAGE fragment P1 (60-76)] showed a Kd in assay [2] of 1390 nM.
For the molecule AWKVLSPQGGG [RAGE fragment P2 (60-70)], the Kd in assay [2] is 4060 nM.
In assay [2], KVLSPQGGGPWD [RAGE fragment P6 (62-73)] gave a Kd of 1530 nM. This Kd is about 2.7-fold lower than that of the molecule before.
Consider AWKVLS [RAGE fragment P4 (60-65)], for which the Kd in assay [2] was found to be 2810 nM.
The molecule AWK [RAGE fragment P3 (60-62)] registered a Kd in assay [2] of 840 nM.
